Non-standard residues stand in square brackets, D forms with d. No end group written: not given here. pY = N[C@@H](Cc1ccc(OP(=O)(O)O)cc1)C(=O)O; pS = N[C@@H](COP(=O)(O)O)C(=O)O
Tests used:
Assay in all cases: ITC; MicroCal iTC200, 25 °C; proteins 0.25 mmol/L and peptides 3 mmol/L, dialyzed against buffer B (20 mmol/L Tris-HCl, 200 mmol/L NaCl, 1 mmol/L EDTA, pH 8.0); single binding site model
Details in all cases: both partners purified
LC3B R11A = LC3B R11A (human, UniProt Q9GZQ8 1-120, R11A)
LC3B R11E = LC3B R11E (human, UniProt Q9GZQ8 1-120, R11E)
LC3B R10A = LC3B R10A (human, UniProt Q9GZQ8 1-120, R10A)
[1] = biological target: microtubule-associated protein light chain 3 beta (LC3B), wild type, full-length 1-125 (human, UniProt Q9GZQ8 1-120)
LC3B R10E = LC3B R10E (human, UniProt Q9GZQ8 1-120, R10E)
LC3B V46A = LC3B V46A (human, UniProt Q9GZQ8 1-120, V46A)
LC3B D48A = LC3B D48A (human, UniProt Q9GZQ8 1-120, D48A)
LC3B L47A = LC3B L47A (human, UniProt Q9GZQ8 1-120, L47A)
LC3B F7A = LC3B F7A (human, UniProt Q9GZQ8 1-120, F7A)
LC3B T50A = LC3B T50A (human, UniProt Q9GZQ8 1-120, T50A)
LC3B K51A = LC3B K51A (human, UniProt Q9GZQ8 1-120, K51A)
LC3B K49A = LC3B K49A (human, UniProt Q9GZQ8 1-120, K49A)
LC3B R70E = LC3B R70E (human, UniProt Q9GZQ8 1-120, R70E)
LC3B D19A = LC3B D19A (human, UniProt Q9GZQ8 1-120, D19A)
LC3B I23A = LC3B I23A (human, UniProt Q9GZQ8 1-120, I23A)
LC3B K49E = LC3B K49E (human, UniProt Q9GZQ8 1-120, K49E)
LC3B L53A = LC3B L53A (human, UniProt Q9GZQ8 1-120, L53A)
LC3B R70A = LC3B R70A (human, UniProt Q9GZQ8 1-120, R70A)
LC3B K49R = LC3B K49R (human, UniProt Q9GZQ8 1-120, K49R)

B1: FUNDC1 LIR peptide 10-25 phosphorylated at Ser13 (peptide)
peptide: DYE[pS]DDDSYEVLDLTE
notes: also called FUNDC1 pS13; pS13 peptide; source: synthetic peptide (GL Biochem, Shanghai)
Kd (LC3B R11A): 11.2 ± 0.73 µM | dH (LC3B R11A): -4.1 kcal/mol | stoichiometry N (LC3B R11A): 1.11 | Kd (LC3B R11E): 17.1 ± 1.05 µM | dH (LC3B R11E): -2.39 kcal/mol | stoichiometry N (LC3B R11E): 1.04 | Kd (LC3B R10A): 28.5 ± 2.97 µM | dH (LC3B R10A): -3.67 kcal/mol | stoichiometry N (LC3B R10A): 1.02 | Kd [1]: 4.63 ± 0.13 µM | dH [1]: -3.81 kcal/mol | stoichiometry N [1]: 1.13 | Kd (LC3B R10E): 34 ± 3.46 µM | dH (LC3B R10E): -2.83 kcal/mol | stoichiometry N (LC3B R10E): 1.03

B2: FUNDC1 LIR peptide 10-25, unphosphorylated (peptide)
peptide: DYESDDDSYEVLDLTE
notes: FUNDC1 (Fun14 domain-containing protein 1), LIR and flanking residues 10-25; also called unphosphorylated FUNDC1 peptide; FUNDC1 peptide; source: synthetic peptide (GL Biochem, Shanghai)
Kd (LC3B R11A): 5.62 ± 0.25 µM | dH (LC3B R11A): -4.51 kcal/mol | stoichiometry N (LC3B R11A): 1.12 | Kd (LC3B R10A): 11.4 ± 1.14 µM | dH (LC3B R10A): -3.56 kcal/mol | stoichiometry N (LC3B R10A): 1.01 | Kd (LC3B V46A): 1.59 ± 0.19 µM | dH (LC3B V46A): -4.86 kcal/mol | stoichiometry N (LC3B V46A): 1.02 | Kd (LC3B D48A): 1.17 ± 0.15 µM | dH (LC3B D48A): -3.03 kcal/mol | stoichiometry N (LC3B D48A): 0.98 | Kd (LC3B L47A): 3.07 ± 0.64 µM | dH (LC3B L47A): -2.06 kcal/mol | stoichiometry N (LC3B L47A): 1.19 | Kd (LC3B F7A): 3.52 ± 0.23 µM | dH (LC3B F7A): -3.08 kcal/mol | stoichiometry N (LC3B F7A): 1.17 | Kd [1]: 1.78 ± 0.16 µM | dH [1]: -3.15 kcal/mol | stoichiometry N [1]: 1.02 | Kd (LC3B T50A): 2.81 ± 0.31 µM | dH (LC3B T50A): -2.65 kcal/mol | stoichiometry N (LC3B T50A): 1.02

B3: FUNDC1 LIR peptide 10-25 phosphorylated at Ser17 (peptide)
peptide: DYESDDD[pS]YEVLDLTE
notes: also called FUNDC1 pS17; FUNDC1 pS17 peptide; source: synthetic peptide (GL Biochem, Shanghai)
Kd (LC3B K51A): 5.92 ± 0.75 µM | dH (LC3B K51A): -2.66 kcal/mol | stoichiometry N (LC3B K51A): 1.03 | Kd (LC3B K49A): 3.56 ± 0.21 µM | dH (LC3B K49A): -4.9 kcal/mol | stoichiometry N (LC3B K49A): 1.08 | Kd (LC3B R70E): 61 ± 3.44 µM | dH (LC3B R70E): -2.54 kcal/mol | stoichiometry N (LC3B R70E): 1.03 | Kd (LC3B D19A): 2.39 ± 0.3 µM | dH (LC3B D19A): -2.78 kcal/mol | stoichiometry N (LC3B D19A): 1.16 | Kd (LC3B I23A): 4.85 ± 0.25 µM | dH (LC3B I23A): -1.53 kcal/mol | stoichiometry N (LC3B I23A): 1.04 | Kd (LC3B K49E): 120 ± 5.72 µM | dH (LC3B K49E): -4.49 kcal/mol | stoichiometry N (LC3B K49E): 0.93 | Kd (LC3B L53A): 0.97 ± 0.14 µM | dH (LC3B L53A): -2.61 kcal/mol | stoichiometry N (LC3B L53A): 1.03 | Kd [1]: 0.59 ± 0.06 µM | dH [1]: -3.51 kcal/mol | stoichiometry N [1]: 1 | Kd (LC3B R70A): 15.8 ± 1.5 µM | dH (LC3B R70A): -1.8 kcal/mol | stoichiometry N (LC3B R70A): 1.04 | Kd (LC3B K49R): 0.33 ± 0.07 µM | dH (LC3B K49R): -5.78 kcal/mol | stoichiometry N (LC3B K49R): 1.17

B4: FUNDC1 LIR peptide 10-25 phosphorylated at Tyr18 (peptide)
peptide: DYESDDDS[pY]EVLDLTE
notes: also called FUNDC1 pY18; pY18 peptide; source: synthetic peptide (GL Biochem, Shanghai)
Kd [1]: 16.8 ± 2.1 µM | dH [1]: -0.93 kcal/mol | stoichiometry N [1]: 1.16

From paper PMC5233613, “Structural insights into the recognition of phosphorylated FUNDC1 by LC3B in mitophagy” (Protein & Cell, 2016)
